Reference: the RNAGym collection of RNA variant scans (doi:10.1073/pnas.2313332121)

B1: TPR t1 (parent)
chain: GACCAAUCUGCCCUCAGAGCUCGAGAACAUCUUCGGAUGCAGAGGAGGCAGGCUUCGGUGGCGCGAUAGCGCCAACGUCCUCAACCUCCAAUGCAUCCCACCACAUGAUGAUGCCUGAAGAGCCUUGGUUUUUUG

Variants of: B1
Test: polymerase ribozyme fitness, log enrichment relative to wild type (log ratio); higher = more active; in vitro selection for triplet polymerase activity
How it was run: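 For each subunit of a heterodimeric triplet polymerase ribozyme, a mutant library was built by PCR and transcribed, then taken through a single in vitro selection round in triplicate. Selection involved annealing to a biotinylated primer, the partner subunit and triplets, incubation frozen at −7 °C, gel excision of extended constructs, capture on streptavidin beads and RT-PCR. Genotypes were retained after Illumina sequencing of inputs and outputs only with ≥10 input reads and ≥1 read in each output. Fitness is defined as the logarithm of a genotype's enrichment relative to wild-type enrichment, using inverse-variance-weighted averages across replicates, with the logarithm taken to base 2.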

Row | Variant | polymerase ribozyme fitness (log ratio)
1 | GACCAAUCUGCUCUCAGCGCUCGAGAACAUCUUUGGAUGCAGAGGAGGCAGGCUUCGGUGGCGCGAUAGCGCCAACGUCCUCAACCUCCAAUGCAUCCCACCACAUGAUGAUGCCUGAACAGCCUUGGUUUUUUG | -4.87
2 | GACCAAUCUGCUCUCAGGGCUCGAGAACAUCUUCGGAUGCAGAGGAGGCAGGCUUCGGUGGCCCGAUAGCGCCAACGUCCUCAACCUGCCAUGCAUCCCACCACAUGAUGAUGACUGAAGAACCUUGGUUUUUUG | -5.09
3 | GACCAAUCUGCUCUCAGUGCUCGAGAACAUCUUCGGAUGCAGAGGACGCAGGCUUCGGUGGCGCGAUAGCGCCAACGUCCUCAACCUCCAAUGCAUCCCACCACAUGAUGAUGCCUGAAGAGCCUUGGUAUUUUG | -4.44
4 | GACCAAUCUGCUCUCAGAGCUCGAGUACAUCUUCGGAUGCAGAGGAGGCAGGCUUCGGUGGCGCGAUAGCGCCAACGUCCUCAACCUCCAAUUCAUCCCACCACAUGAUGAUGCCUGAAGAGCCUUGGUUUUUUG | -3.6
5 | GACCAAUCUGCUCUCAGAGCUCGAGACCAUCUUCGGAUGCAGAGGAGGCAGGCUUCGGUGGCGCGAUAGCGCCAACGUCCUCAACCUCCAAUGCAUCCCACCACAUGAUGAUGCCUGAAGAGCCUUGGUUUUUUG | -2.1
6 | GACCAAUCUGCUCUCAGAGCUCGAGACCAUCUUCGGAUGCAGAGGAGGAAGGCUUCGGUGGCGCGAUAGCGCCAACGUCCUCAACCUCCAAUGCAUCCCACCACAUGAUGAUGCCUGAAGAGCCUUGGUUUUUUG | -2.06
7 | GACCAAUCUGCUCUCAGAGCUCGAGAGCAUCUUCGGAUGUAGAGGAGGCAGGCUUUGGUGGCGCGAUAGCGCCAACGUACACAACCUCCAAUGCAUCCCACCACAUGAUGAUGCCUGAAGAGCUUUGGUUUUUUG | -2.87
8 | GACCAAUCUGCUCUCAGAGCUCGAGAGCAUCUUCGGAUGCAGAGGAGGCAGGCUUCGGUGGCGCGAUAGCGCCAACGUCCUCAACCUACAAUGCAUCCCACCACAUGAUGAUGCCUGAAGAGGCUAGGUUUUUUG | -1.75
9 | GACCAAUCUGCUCUCAGAGCUCGAGAGCAUCUUCGGAUGCAAAGGAGGCAGGCUUCGGUGGCGCGAUAGCGCCAACGUCCUCAACCUCCGAUUCGUCCCACCACAUGAUGAUGCCUGAAGAGCCUUGGUUUUUUG | -2.39
10 | GACCAAUCUGCUCUCAGAGCUCGAGAACGUCUUCGGAUGCAGAGGAGGCAGGCUUCGGUGGCGCGAUAGCGCGAACGUCCUCAACCUCCAACGAAUCCCACCACAUGAUGAUGCCUGAAGAGCCUUGGUUUUUUG | -5.22
11 | GACCAAUCUGCUCUCAGAGCUCGAGAACGUCUUCGGAUGCAGAGGAGGCAGGCUUCGGUGGCGCGAUAGCUCCAACGUCCUCAACCUCCAAUGCAUCCCACCACAUGAUGAUGCCUGAAGAGCCUUGAUUUUUUG | -3.03
12 | GACCAAUCUGCUCUCAGAGCUCGAGAACAUCUUCGGUUGCAGAGGAGGCAGGCUUCGGUGGCACGAUAGCGCCAACGUCCUCAAUCUCCAAUCCAUCCCACCACAUGAUGAUGCCUGAAAAGCCUUGGUUUUUUG | -0.961
13 | GACCAAUCUGCUCUCAGAGCUCGAGAACAUCUUCGGAUGCAGUGGAGGCAGGCUUCGGUGGCGCGAUAGCGCCAACGUCCUCAACCUCCAAUGCAUCCCACCACAUGAUGAUGCCUGAAGAGCCUUGGUUUUUUG | -1.51
14 | GACCAAUCUGCUCUCAGAGCUCGAGAACAUCUUCGGAUGCAGAGGCUGCAGGCUUCGGUGGCGCGAUAGCGCCAACGUCCUCAACAUCCAAUGCAUCCCACCACAUGGUGAUGCCUGAAGAGCCUUGGUUUUUUG | -1.87
15 | GACCAAUCUGCUCUCAGAGCUCGAGAACAUCUUCGGAUGCAGAGGCGGCAGUCUUCGGUGGCGCGAUAGCGCCAACGUCCUCAACCUCCAAUGCAUCCCACCACAUGAUGAUGCCUGAAGAGCCUUGGUUUUUUG | -0.969
16 | GACCAAUCUGCUCUCAGAGCUCGAGAACAUCUUCGGAUGCAGAGGAGGCCGGCUUCGGUGGCGUGGUAGCGCCAACGUCCCCAACCUCCAAUGCAUCCCACCACAUGAUGAUGCCUGAAGAGCCUUGGUUUUUUG | -4.8
17 | GACCAAUCUGCUCUCAGAGCUCGAGAACAUCUUCGGAUGCAGAGGAGGCGGGCUUCGGUGGCGCGAUAGCGCCUACGCCCUCAACCUCCAAUACAUCCCACCACAUGAUGAUGCCUGAAGAGCCUUGGUUUUUUG | -1.93
18 | GACCAAUCUGCUCUCAGAGCUCGAGAACAUCUUCGGAUGCAGAGGAGGCGGGCUUCGGUGGCGCGAUAGCUCCAACGUCCUCAACCUCCAAUGCAUCCCACCACAUGAUGAUGCCUGAAGAGCCUUGGUCUUUUG | 0.0947
19 | GACCAAUCUGCUCUCAGAGCUCGAGAACAUCUUCGGAUGCAGAGGAGGCUGGCUUCGGUGGCGCGAUAGCGCUAACGUCCUCAACCUCCAAUGCAUCCCACCACAUGAUGAUGCCUGAAGAGCCAUGGUUUUUUG | -0.873
20 | GACCAAUCUGCUCUCAGAGCUCGAGAACAUCUUCGGAUGCAGAGGAGGCAGGCUUCGGUGGCGCGAUAGCGCCAACGUCCUCAACCUCCAUUGCAUCCCACCACAUGAUGAUGCCUGAAGAGCCUUGGUUUUUUG | -1.85
21 | GACCAAUCUGCUCUCAGAGCUCGAGAACAUCUUCGGAUGCAGAGGAGGCAGGCUUCGGUGGCGCGAUAGCGCCAACGUCCUCAACCUCCAUUGCAUCCCACCACAUGAUGAUGCCUGAAGAGCCUUGGUUUUUUU | -2.33
